Reference: patent publication US20080146500A1, “Selective Vpac2 Receptor Peptide Agonists” (priority 2004, published 2008)
Like-named read-outs stand apart in the source and are kept apart here. Square brackets hold non-standard residues; d marks the D form. Ends that are not written are not given here. * marks the point of attachment. Hexanoyl = CCCCCC(=O)*; Aib = CC(C)(N)C(=O)O

How the values were obtained:
[1] = biological target: T1, human VPAC2 (Homo sapiens, UniProt P41587); assay: Filter binding assay, membranes from stable VPAC2 cell line, 125I-labeled VIP tracer; details: read-out: Human receptor binding (IC50; nM) VPAC2
T1 construct: expressed in transfected cells
T1 sequence (P41587 24-438): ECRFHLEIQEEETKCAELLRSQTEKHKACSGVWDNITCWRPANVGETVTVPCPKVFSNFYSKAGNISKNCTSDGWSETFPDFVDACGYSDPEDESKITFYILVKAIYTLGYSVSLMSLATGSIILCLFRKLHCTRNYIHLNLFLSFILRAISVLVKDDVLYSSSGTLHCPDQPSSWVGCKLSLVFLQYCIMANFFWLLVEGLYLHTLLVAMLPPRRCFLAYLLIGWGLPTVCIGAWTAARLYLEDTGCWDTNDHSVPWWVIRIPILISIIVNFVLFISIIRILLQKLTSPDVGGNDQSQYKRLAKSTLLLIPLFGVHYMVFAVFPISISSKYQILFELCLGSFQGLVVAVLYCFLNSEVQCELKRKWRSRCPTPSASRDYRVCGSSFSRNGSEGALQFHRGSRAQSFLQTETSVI
Experimental: (§1) For this assay, the solutions and equipment include:
(§2) Presoak solution: 0.5% Polyethyleneamine in Aqua dest.
(§3) Buffer for flushing filter plates: 25 mM HEPES pH 7.4
(§4) Blocking buffer: 25 mM HEPES pH 7.4; 0.2% protease free BSA
(§5) Assay buffer: 25 mM HEPES pH 7.4; 0.5% protease free BSA
(§6) Dilution and assay plate: PS-Microplate, U form
(§7) Filtration Plate Multiscreen FB Opaque Plate; […] Type B Glasfiber filter
(§8) In order to prepare the filter plates, the presoak solution is aspirated by vacuum filtration. The plates are flushed twice with 200 μL flush buffer. 200 μL blocking buffer is added to the filter plate. The filter plate is then incubated with 200 μL presoak solution for 1 hour at room temperature.
(§9) The assay plate is filled with […] (2.5 μg) suspended in assay buffer, 25 μL compound (agonist) in assay buffer, and 25 μL tracer (about 40000 cpm) in assay buffer. The filled plate is incubated for 1 hour with shaking.
(§10) The transfer from assay plate to filter plate is conducted. The blocking buffer is aspirated by vacuum filtration and washed two times with flush buffer. 90 μL is transferred from the assay plate to the filter plate. The 90 μL transferred from assay plate is aspirated and washed three times with 200 μL flush buffer. The plastic support is removed. It is dried for 1 hour at 60° C. 30 μL Microscint is added. The count is performed.
(§11) Values reported are single results or the mean of two or more independent runs.

[2] = biological target: T1, human VPAC2; assay: Alpha screen in vitro potency: human VPAC2-R mediated cAMP generation; assay type: cell-based; details: single results or mean of two or more independent runs
[3] = Rat serum stability at 37 C, remaining active peptide estimated by EC50,4C/EC50,37C in CHO-VPAC2 cAMP assay
Experimental: The rat serum is stored at 4° C. until use and is used within two weeks.
On Day 0, two 100 μL aliquots of 10 μM peptide in rat serum are prepared by adding 10 μL peptide stock to 90 μL rat serum for each aliquot. 250 kIU aprotinin/mL is added to one of these aliquots. The aliquot is stored with aprotinin at 4° C. The aliquot is stored without aprotinin at 37° C. The aliquots are incubated for […].
On Day 1, after incubation of the aliquots prepared on day 0 for 24 hours, an incubation buffer containing PBS+1.3 mM CaCl2, 1.2 mM MgCl2, 2 mM glucose, and 0.25 mM IBMX is prepared. A plate with 11 serial 5× dilutions of peptide for the 4° C. and 37° C. aliquot is prepared for each peptide studied. […] The plate(s) are washed with cells twice in incubation buffer. The plates are allowed to hold 50 μL incubation media per well for 15 minutes. 50 μL solution per well is transferred to the cells from the plate prepared with 11 serial 5× dilutions of peptide for the 4° C. and 37° C. aliquot for each peptide studied, using the maximal concentrations that are indicated by the primary screen, in duplicate. This step dilutes the peptide concentration by a factor of two. The cells are incubated at room temperature for 30 minutes. The supernatant is removed. 40 μL/well of the DiscoveRx antibody/extraction buffer is added. The cells are incubated on the shaker (300 rpm) for 1 hour. Normal procedure with the DiscoveRx kit is followed. cAMP standards are included in column 12. EC50 values are determined from the cAMP assay data.

[4] = biological target: T2, human PAC1 (Homo sapiens, UniProt P41586); assay: Filter binding assay, membranes from cells transiently transfected with human PAC1, 125I-labeled PACAP-27 tracer; details: read-out: Human receptor binding (IC50; nM) PAC1
T2 construct: expressed in transfected cells
T2 sequence (P41586 21-468): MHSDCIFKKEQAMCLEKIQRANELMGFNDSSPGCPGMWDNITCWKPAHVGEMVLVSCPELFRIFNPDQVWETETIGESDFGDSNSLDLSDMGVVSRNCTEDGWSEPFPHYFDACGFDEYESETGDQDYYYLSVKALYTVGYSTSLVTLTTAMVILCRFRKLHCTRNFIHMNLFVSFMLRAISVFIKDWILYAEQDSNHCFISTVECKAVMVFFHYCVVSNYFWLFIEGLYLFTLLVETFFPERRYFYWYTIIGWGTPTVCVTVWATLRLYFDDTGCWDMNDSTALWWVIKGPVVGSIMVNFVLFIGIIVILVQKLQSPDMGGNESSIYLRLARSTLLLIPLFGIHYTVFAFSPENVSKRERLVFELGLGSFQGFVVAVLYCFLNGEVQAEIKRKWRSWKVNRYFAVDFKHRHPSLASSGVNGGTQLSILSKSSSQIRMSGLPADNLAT
Experimental: as §1, §2, §3, §4, §5, §6, §7, §8, §9, §10, §11

[5] = biological target: T3, human VPAC1 (Homo sapiens, UniProt P32241); assay: Filter binding assay, membranes from cells transiently transfected with human VPAC1, 125I-labeled VIP tracer; details: read-out: Human receptor binding (IC50; nM) VPAC1
T3 construct: expressed in transfected cells
T3 sequence (P32241 31-457): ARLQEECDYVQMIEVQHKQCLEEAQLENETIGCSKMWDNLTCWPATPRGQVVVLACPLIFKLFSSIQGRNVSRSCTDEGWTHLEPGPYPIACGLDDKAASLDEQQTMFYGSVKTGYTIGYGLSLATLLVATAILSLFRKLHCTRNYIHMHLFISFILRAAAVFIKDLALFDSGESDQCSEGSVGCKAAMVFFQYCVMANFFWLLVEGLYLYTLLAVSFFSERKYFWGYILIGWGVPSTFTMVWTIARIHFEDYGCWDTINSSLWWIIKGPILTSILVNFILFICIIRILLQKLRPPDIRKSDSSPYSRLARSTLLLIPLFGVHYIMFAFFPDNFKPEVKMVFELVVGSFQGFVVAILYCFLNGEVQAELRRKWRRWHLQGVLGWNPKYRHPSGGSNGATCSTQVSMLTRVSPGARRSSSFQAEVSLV
Experimental: as §1, §2, §3, §4, §5, §6, §7, §8, §9, §10, §11

[6] = Pharmacokinetic profiles of PEGylated peptides, plasma peptide by RIA; assay type: in vivo, Fisher 344 rats
Experimental: Pharmacokinetic profiles of PEGylated peptides. Healthy Fisher 344 rats (3 animals per group) are injected with 100 μg compound/kg (compound amount based on peptide content and dissolved in PBS buffer). […] PK parameters are then calculated using a model-independent method (WinNonlin Pro, Pharsight Corp., Mountain View, Calif., USA).

[7] = biological target: T4, rat VPAC2 receptor (Rattus norvegicus, UniProt P35000); assay: Rat VPAC2 in vitro potency (cAMP generation, DiscoveRx) in transiently transfected CHO-PO cells; assay type: cell-based; details: CHO-PO cells transiently transfected with rat VPAC2; read-out: rVPAC2 in vitro potency (cAMP generation) EC50
T4 construct: expressed in transfected cells; host or cells: CHO-PO cells, transient
T4 sequence (P35000 23-437): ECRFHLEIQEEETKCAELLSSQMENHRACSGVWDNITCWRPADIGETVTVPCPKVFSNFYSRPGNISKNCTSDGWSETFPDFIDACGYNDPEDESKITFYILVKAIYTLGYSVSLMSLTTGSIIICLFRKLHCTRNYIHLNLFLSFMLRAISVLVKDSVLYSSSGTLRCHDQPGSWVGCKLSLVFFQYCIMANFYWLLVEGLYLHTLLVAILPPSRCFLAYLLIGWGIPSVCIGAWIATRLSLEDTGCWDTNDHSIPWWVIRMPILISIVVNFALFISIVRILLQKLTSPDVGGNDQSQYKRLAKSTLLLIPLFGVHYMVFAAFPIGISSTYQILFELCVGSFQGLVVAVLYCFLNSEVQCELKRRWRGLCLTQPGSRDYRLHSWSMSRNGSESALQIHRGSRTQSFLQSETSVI
Experimental: (§12) Rat receptor selectivity is estimated by comparing functional potency (cAMP generation) in CHO-PO cells transiently expressing rat VPAC1 or rat VPAC2 receptors. CHO-PO cells transiently expressing rat VPAC1 or VPAC2, are seeded with 10,000 cells/well three days before the assay. The cells are kept in 200 μL culture medium. […] The stimuli are present for 30 minutes. The assay buffer is then gently removed.

[8] = biological target: T5, rat VPAC1 receptor (Rattus norvegicus, UniProt P30083); assay: Rat VPAC1 in vitro potency (cAMP generation, DiscoveRx) in transiently transfected CHO-PO cells; assay type: cell-based; details: CHO-PO cells transiently transfected with rat VPAC1; read-out: rVPAC1 in vitro potency (cAMP generation) EC50
T5 construct: expressed in transfected cells; host or cells: CHO-PO cells, transient
T5 sequence (P30083 31-459): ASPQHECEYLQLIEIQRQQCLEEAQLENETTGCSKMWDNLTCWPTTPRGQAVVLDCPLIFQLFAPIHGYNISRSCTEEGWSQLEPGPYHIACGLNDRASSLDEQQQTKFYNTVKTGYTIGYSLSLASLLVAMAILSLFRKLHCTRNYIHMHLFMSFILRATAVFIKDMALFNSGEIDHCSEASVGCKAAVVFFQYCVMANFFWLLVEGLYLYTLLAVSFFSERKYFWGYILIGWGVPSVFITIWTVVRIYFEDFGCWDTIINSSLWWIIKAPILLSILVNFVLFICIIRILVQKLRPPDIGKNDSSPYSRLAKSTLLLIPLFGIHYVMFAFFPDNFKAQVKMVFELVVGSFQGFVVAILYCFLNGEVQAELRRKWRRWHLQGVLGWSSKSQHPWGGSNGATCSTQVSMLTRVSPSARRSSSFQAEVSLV
Experimental: as §12

[9] = Fisher 344 rats, 100 μg compound/kg, plasma RIA, mean N = 3

Substance	IC50 [1] [nM]	EC50 [2] [nM]	IC50 [5] [nM]	also measured
C6-HSDAVFTDNYTRLRAibQVAAKAibYLQSIKNKRYGGPSSGAPPPC(PEG40K)-NH2 (Hexanoyl-HSDAVFTDNYTRLR[Aib]QVAAK[Aib]YLQSIKNKRYGGPSSGAPPPC(PEG 40 kDa)-NH2) [Agonist P286]	0.46	6.65	> 3000	Estimated 72 h stability (%) ([3]; after 72 h in rat serum at 37 C, values >100% may represent release of intact peptide from the PEG conjugate): 60.5%; IC50 [4]: > 25000 nM
C6-HSDAVFTDNYThRLRAibQVAAAibKYLQSIhRNhRhRYGGPSSGAPPPC(PEG40K)-NH2 (HSDAVFTDNYTXLRXQVAAXKYLQSIXNXXYGGPSSGAPPPC; non-natural residues) [Agonist P340]	4.76	7.74	> 3000	AUC0-last [6, 9]: 515 ng·h/mL; Cmax [6, 9]: 44 ng/mL; Tmax [6, 9]: 6 h; EC50 [7]: 4 nM; EC50 [8]: 116 nM; IC50 [4]: > 25000 nM
P217 (Hexanoyl-HSDAVFTDNYTRLRK(PEG 20 kDa)QVAAK(PEG 20 kDa)RYLQSIRNGGPSSGAPPPS) [Agonist P217]		> 3000		
P217 (Hexanoyl-HSDAVFTDNYTRLRK(PEG 20 kDa)QVAAK(PEG 20 kDa)RYLQSIRNGGPSSGAPPPS) [Compound P217]				Cl/F ([6]; rat, in vivo): 0.12 mL/min/kg; Tmax ([6]; rat, in vivo): 20 h; T½ ([6]; rat, in vivo): 49 h; Vd/F ([6]; rat, in vivo): 0.421 L/kg
P219 (Hexanoyl-HSDAVFTDNYTRLRRQVAAK(PEG 20 kDa)RYLQSIRNGGPSSGAPPPS) [Agonist P219]	67.9	25.5	> 25000	
P219 (Hexanoyl-HSDAVFTDNYTRLRRQVAAK(PEG 20 kDa)RYLQSIRNGGPSSGAPPPS) [Compound P219]				Estimated 72 h stability (%) [3]: 45.6%
P245 (HSDAVFTDNYTRLRKQVAARRYLQSIRNGGPSSGAPPPS; not fully specified (residue 15, N-terminus)) [Agonist P245]	921	450	> 25000	
P246 (Hexanoyl-HSDAVFTDNYTRLRRQVAAK(PEG 40 kDa)RYLQSIRNGGPSSGAPPPS) [Agonist P246]	> 1000	398	> 25000	
P247 (HSDAVFTDNYTRLRRQVAARKYLQSIRNGGPSSGAPPPS; not fully specified (residue 21, N-terminus)) [Agonist P247]	353	133	> 25000	
P247 (HSDAVFTDNYTRLRRQVAARKYLQSIRNGGPSSGAPPPS; not fully specified (residue 21, N-terminus)) [Compound P247]				Estimated 72 h stability (%) [3]: 16.7%
P300 (Hexanoyl-HSDAVFTDNYTRLR[Aib]QVAA[Aib]KYLQSIKNKRYGGPSSGAPPPC(PEG 40 kDa)-NH2) [Agonist P300]	1.76	6.62	> 3000	EC50 [7]: 5.8 nM; IC50 [4]: > 25000 nM
P300 (Hexanoyl-HSDAVFTDNYTRLR[Aib]QVAA[Aib]KYLQSIKNKRYGGPSSGAPPPC(PEG 40 kDa)-NH2) [Compound P300]				Cl/F ([6]; rat, in vivo): 1.2 mL/min/kg; Tmax ([6]; rat, in vivo): 10 h; T½ ([6]; rat, in vivo): 15 h; Vd/F ([6]; rat, in vivo): 1.557 L/kg
